B1: Azoarcus group I ribozyme (parent)
chain: GUGCCUUGCGCCGGGAAACCACGCAAGGGAUGGUGUCAAAUUCGGCGAAACCUAAGCGCCCGCCCGGGCGUAUGGCAACGCCGAGCCAAGCUUCGGCGCCUGCGCCGAUGAAGGUGUAGAGACUAGACGGCACCCACCUAAGGCAAACGCUAUGGUGAAGGCAUAGUCCAGGGAGUGGCGAAAGUCACACAAACCGG

Variants of: B1
Assay: reverse-splicing fitness (ratio to wild type); higher = more active; in vitro selection; Mg2+ level not given
Outline: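 An in vitro group I ribozyme library with randomized positions was T7-transcribed and gel-purified. In triplicate, 10 pmol RNA in EPPS pH 7.5 was reacted with 50 pmoles of a 30-nt RNA substrate for 1 h at 37 °C across several added MgCl2 levels (1–48 mM), then stopped with EDTA. Products were reverse transcribed from a substrate-complementary primer, PCR-amplified and sequenced (HiSeq 4000). Fitness is a variant's read proportion after selection over that before, normalised to wild type.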

Variant	reverse-splicing fitness
GUGCCUUGCGCCGGGAAACCACGCAAGGGAUGGUGUCAAAUUCGGCGAAACCUAAGCGCCCGCCCGGGCGUAUGGCAACGCCGAGCCAAGCUUCGGCGCCUGCGCCGAUGCAGGUGUAGAGACUAGACGGCACCCACCUAAGGCAAACGGUAUGGUGAAGGCAUAGUCGAGGGAGAGGCGAAAGUCACACAAACCGG [A111C C150G C169G U176A]	0.00634
GUGCCUUGCGCCGGGAAACCACGCAAGGGAUGGUGUCAAAUUCGGCGAAACCUAAGCGCCCGCCCGGGCGUAUGGCAACGCCGAGCCAAGCUUCGGCGCCUGCGCCGAUGCAGGUGUAGAGACUAGACGGCACCCACCUAAGGCAAACGGUAUGGUGAAGGCAUAGUCGAGGGAGCGGCGAAAGUCACACAAACCGG [A111C C150G C169G U176C]	0.00414
GUGCCUUGCGCCGGGAAACCACGCAAGGGAUGGUGUCAAAUUCGGCGAAACCUAAGCGCCCGCCCGGGCGUAUGGCAACGCCGAGCCAAGCUUCGGCGCCUGCGCCGAUGCAGGUGUAGAGACUAGACGGCACCCACCUAAGGCAAACGGUAUGGUGAAGGCAUAGUCGAGGGAGGGGCGAAAGUCACACAAACCGG [A111C C150G C169G U176G]	0.00532
GUGCCUUGCGCCGGGAAACCACGCAAGGGAUGGUGUCAAAUUCGGCGAAACCUAAGCGCCCGCCCGGGCGUAUGGCAACGCCGAGCCAAGCUUCGGCGCCUGCGCCGAUGCAGGUGUAGAGACUAGACGGCACCCACCUAAGGCAAACGGUAUGGUGAAGGCAUAGUCUAGGGAGUGGCGAAAGUCACACAAACCGG [A111C C150G C169U]	0.0134
GUGCCUUGCGCCGGGAAACCACGCAAGGGAUGGUGUCAAAUUCGGCGAAACCUAAGCGCCCGCCCGGGCGUAUGGCAACGCCGAGCCAAGCUUCGGCGCCUGCGCCGAUGCAGGUGUAGAGACUAGACGGCACCCACCUAAGGCAAACGGUAUGGUGAAGGCAUAGUCUAGGGAGAGGCGAAAGUCACACAAACCGG [A111C C150G C169U U176A]	0.00732
GUGCCUUGCGCCGGGAAACCACGCAAGGGAUGGUGUCAAAUUCGGCGAAACCUAAGCGCCCGCCCGGGCGUAUGGCAACGCCGAGCCAAGCUUCGGCGCCUGCGCCGAUGCAGGUGUAGAGACUAGACGGCACCCACCUAAGGCAAACGGUAUGGUGAAGGCAUAGUCUAGGGAGCGGCGAAAGUCACACAAACCGG [A111C C150G C169U U176C]	0.014
GUGCCUUGCGCCGGGAAACCACGCAAGGGAUGGUGUCAAAUUCGGCGAAACCUAAGCGCCCGCCCGGGCGUAUGGCAACGCCGAGCCAAGCUUCGGCGCCUGCGCCGAUGCAGGUGUAGAGACUAGACGGCACCCACCUAAGGCAAACGGUAUGGUGAAGGCAUAGUCUAGGGAGGGGCGAAAGUCACACAAACCGG [A111C C150G C169U U176G]	0.00651
GUGCCUUGCGCCGGGAAACCACGCAAGGGAUGGUGUCAAAUUCGGCGAAACCUAAGCGCCCGCCCGGGCGUAUGGCAACGCCGAGCCAAGCUUCGGCGCCUGCGCCGAUGCAGGUGUAGAGACUAGACGGCACCCACCUAAGGCAAACGGUAUGGUGAAGGCAUAGUCCAGGGAGAGGCGAAAGUCACACAAACCGG [A111C C150G U176A]	0.0504
GUGCCUUGCGCCGGGAAACCACGCAAGGGAUGGUGUCAAAUUCGGCGAAACCUAAGCGCCCGCCCGGGCGUAUGGCAACGCCGAGCCAAGCUUCGGCGCCUGCGCCGAUGCAGGUGUAGAGACUAGACGGCACCCACCUAAGGCAAACGGUAUGGUGAAGGCAUAGUCCAGGGAGCGGCGAAAGUCACACAAACCGG [A111C C150G U176C]	0.0763
GUGCCUUGCGCCGGGAAACCACGCAAGGGAUGGUGUCAAAUUCGGCGAAACCUAAGCGCCCGCCCGGGCGUAUGGCAACGCCGAGCCAAGCUUCGGCGCCUGCGCCGAUGCAGGUGUAGAGACUAGACGGCACCCACCUAAGGCAAACGGUAUGGUGAAGGCAUAGUCCAGGGAGGGGCGAAAGUCACACAAACCGG [A111C C150G U176G]	0.0131
GUGCCUUGCGCCGGGAAACCACGCAAGGGAUGGUGUCAAAUUCGGCGAAACCUAAGCGCCCGCCCGGGCGUAUGGCAACGCCGAGCCAAGCUUCGGCGCCUGCGCCGAUGCAGGUGUAGAGACUAGACGGCACCCACCUAAGGCAAACGUUAUGGUGAAGGCAUAGUCCAGGGAGUGGCGAAAGUCACACAAACCGG [A111C C150U]	0.709
GUGCCUUGCGCCGGGAAACCACGCAAGGGAUGGUGUCAAAUUCGGCGAAACCUAAGCGCCCGCCCGGGCGUAUGGCAACGCCGAGCCAAGCUUCGGCGCCUGCGCCGAUGCAGGUGUAGAGACUAGACGGCACCCACCUAAGGCAAACGUUAUGGUGAAGGCAUAGUCAAGGGAGUGGCGAAAGUCACACAAACCGG [A111C C150U C169A]	0.0198
GUGCCUUGCGCCGGGAAACCACGCAAGGGAUGGUGUCAAAUUCGGCGAAACCUAAGCGCCCGCCCGGGCGUAUGGCAACGCCGAGCCAAGCUUCGGCGCCUGCGCCGAUGCAGGUGUAGAGACUAGACGGCACCCACCUAAGGCAAACGUUAUGGUGAAGGCAUAGUCAAGGGAGAGGCGAAAGUCACACAAACCGG [A111C C150U C169A U176A]	0.0164
GUGCCUUGCGCCGGGAAACCACGCAAGGGAUGGUGUCAAAUUCGGCGAAACCUAAGCGCCCGCCCGGGCGUAUGGCAACGCCGAGCCAAGCUUCGGCGCCUGCGCCGAUGCAGGUGUAGAGACUAGACGGCACCCACCUAAGGCAAACGUUAUGGUGAAGGCAUAGUCAAGGGAGCGGCGAAAGUCACACAAACCGG [A111C C150U C169A U176C]	0.0136
GUGCCUUGCGCCGGGAAACCACGCAAGGGAUGGUGUCAAAUUCGGCGAAACCUAAGCGCCCGCCCGGGCGUAUGGCAACGCCGAGCCAAGCUUCGGCGCCUGCGCCGAUGCAGGUGUAGAGACUAGACGGCACCCACCUAAGGCAAACGUUAUGGUGAAGGCAUAGUCAAGGGAGGGGCGAAAGUCACACAAACCGG [A111C C150U C169A U176G]	0.00796
GUGCCUUGCGCCGGGAAACCACGCAAGGGAUGGUGUCAAAUUCGGCGAAACCUAAGCGCCCGCCCGGGCGUAUGGCAACGCCGAGCCAAGCUUCGGCGCCUGCGCCGAUGCAGGUGUAGAGACUAGACGGCACCCACCUAAGGCAAACGUUAUGGUGAAGGCAUAGUCGAGGGAGUGGCGAAAGUCACACAAACCGG [A111C C150U C169G]	0.0354
GUGCCUUGCGCCGGGAAACCACGCAAGGGAUGGUGUCAAAUUCGGCGAAACCUAAGCGCCCGCCCGGGCGUAUGGCAACGCCGAGCCAAGCUUCGGCGCCUGCGCCGAUGCAGGUGUAGAGACUAGACGGCACCCACCUAAGGCAAACGUUAUGGUGAAGGCAUAGUCGAGGGAGAGGCGAAAGUCACACAAACCGG [A111C C150U C169G U176A]	0.014
GUGCCUUGCGCCGGGAAACCACGCAAGGGAUGGUGUCAAAUUCGGCGAAACCUAAGCGCCCGCCCGGGCGUAUGGCAACGCCGAGCCAAGCUUCGGCGCCUGCGCCGAUGCAGGUGUAGAGACUAGACGGCACCCACCUAAGGCAAACGUUAUGGUGAAGGCAUAGUCGAGGGAGCGGCGAAAGUCACACAAACCGG [A111C C150U C169G U176C]	0.0234
GUGCCUUGCGCCGGGAAACCACGCAAGGGAUGGUGUCAAAUUCGGCGAAACCUAAGCGCCCGCCCGGGCGUAUGGCAACGCCGAGCCAAGCUUCGGCGCCUGCGCCGAUGCAGGUGUAGAGACUAGACGGCACCCACCUAAGGCAAACGUUAUGGUGAAGGCAUAGUCGAGGGAGGGGCGAAAGUCACACAAACCGG [A111C C150U C169G U176G]	0.0072
GUGCCUUGCGCCGGGAAACCACGCAAGGGAUGGUGUCAAAUUCGGCGAAACCUAAGCGCCCGCCCGGGCGUAUGGCAACGCCGAGCCAAGCUUCGGCGCCUGCGCCGAUGCAGGUGUAGAGACUAGACGGCACCCACCUAAGGCAAACGUUAUGGUGAAGGCAUAGUCUAGGGAGUGGCGAAAGUCACACAAACCGG [A111C C150U C169U]	0.0632
GUGCCUUGCGCCGGGAAACCACGCAAGGGAUGGUGUCAAAUUCGGCGAAACCUAAGCGCCCGCCCGGGCGUAUGGCAACGCCGAGCCAAGCUUCGGCGCCUGCGCCGAUGCAGGUGUAGAGACUAGACGGCACCCACCUAAGGCAAACGUUAUGGUGAAGGCAUAGUCUAGGGAGAGGCGAAAGUCACACAAACCGG [A111C C150U C169U U176A]	0.0241
GUGCCUUGCGCCGGGAAACCACGCAAGGGAUGGUGUCAAAUUCGGCGAAACCUAAGCGCCCGCCCGGGCGUAUGGCAACGCCGAGCCAAGCUUCGGCGCCUGCGCCGAUGCAGGUGUAGAGACUAGACGGCACCCACCUAAGGCAAACGUUAUGGUGAAGGCAUAGUCUAGGGAGCGGCGAAAGUCACACAAACCGG [A111C C150U C169U U176C]	0.0245
GUGCCUUGCGCCGGGAAACCACGCAAGGGAUGGUGUCAAAUUCGGCGAAACCUAAGCGCCCGCCCGGGCGUAUGGCAACGCCGAGCCAAGCUUCGGCGCCUGCGCCGAUGCAGGUGUAGAGACUAGACGGCACCCACCUAAGGCAAACGUUAUGGUGAAGGCAUAGUCUAGGGAGGGGCGAAAGUCACACAAACCGG [A111C C150U C169U U176G]	0.00793
GUGCCUUGCGCCGGGAAACCACGCAAGGGAUGGUGUCAAAUUCGGCGAAACCUAAGCGCCCGCCCGGGCGUAUGGCAACGCCGAGCCAAGCUUCGGCGCCUGCGCCGAUGCAGGUGUAGAGACUAGACGGCACCCACCUAAGGCAAACGUUAUGGUGAAGGCAUAGUCCAGGGAGAGGCGAAAGUCACACAAACCGG [A111C C150U U176A]	0.339
GUGCCUUGCGCCGGGAAACCACGCAAGGGAUGGUGUCAAAUUCGGCGAAACCUAAGCGCCCGCCCGGGCGUAUGGCAACGCCGAGCCAAGCUUCGGCGCCUGCGCCGAUGCAGGUGUAGAGACUAGACGGCACCCACCUAAGGCAAACGUUAUGGUGAAGGCAUAGUCCAGGGAGCGGCGAAAGUCACACAAACCGG [A111C C150U U176C]	0.388
GUGCCUUGCGCCGGGAAACCACGCAAGGGAUGGUGUCAAAUUCGGCGAAACCUAAGCGCCCGCCCGGGCGUAUGGCAACGCCGAGCCAAGCUUCGGCGCCUGCGCCGAUGCAGGUGUAGAGACUAGACGGCACCCACCUAAGGCAAACGUUAUGGUGAAGGCAUAGUCCAGGGAGGGGCGAAAGUCACACAAACCGG [A111C C150U U176G]	0.138
GUGCCUUGCGCCGGGAAACCACGCAAGGGAUGGUGUCAAAUUCGGCGAAACCUAAGCGCCCGCCCGGGCGUAUGGCAACGCCGAGCCAAGCUUCGGCGCCUGCGCCGAUGCAGGUGUAGAGACUAGACGGCACCCACCUAAGGCAAACGCUAUGGUGAAGGCAUAGUCAAGGGAGUGGCGAAAGUCACACAAACCGG [A111C C169A]	0.032
GUGCCUUGCGCCGGGAAACCACGCAAGGGAUGGUGUCAAAUUCGGCGAAACCUAAGCGCCCGCCCGGGCGUAUGGCAACGCCGAGCCAAGCUUCGGCGCCUGCGCCGAUGCAGGUGUAGAGACUAGACGGCACCCACCUAAGGCAAACGCUAUGGUGAAGGCAUAGUCAAGGGAGAGGCGAAAGUCACACAAACCGG [A111C C169A U176A]	0.0188
GUGCCUUGCGCCGGGAAACCACGCAAGGGAUGGUGUCAAAUUCGGCGAAACCUAAGCGCCCGCCCGGGCGUAUGGCAACGCCGAGCCAAGCUUCGGCGCCUGCGCCGAUGCAGGUGUAGAGACUAGACGGCACCCACCUAAGGCAAACGCUAUGGUGAAGGCAUAGUCAAGGGAGCGGCGAAAGUCACACAAACCGG [A111C C169A U176C]	0.0285
GUGCCUUGCGCCGGGAAACCACGCAAGGGAUGGUGUCAAAUUCGGCGAAACCUAAGCGCCCGCCCGGGCGUAUGGCAACGCCGAGCCAAGCUUCGGCGCCUGCGCCGAUGCAGGUGUAGAGACUAGACGGCACCCACCUAAGGCAAACGCUAUGGUGAAGGCAUAGUCAAGGGAGGGGCGAAAGUCACACAAACCGG [A111C C169A U176G]	0.00548
